Test results as given in US9073974B2, “RGD-containing cyclic peptides” (The Regents of the University of California, priority 2009, dated 2015).
Numbered stars: 1 amine (or outer) side, 2 acyl side, 3 side chain; on linkers, the order of the positions; unused ones are H or OH. Bridge positions count the residues as written; N and C are the ends. Square brackets hold non-standard residues; d marks the D form. Primed or numbered codes have the meaning given here. Side chains are listed from the residue outwards. Ends that are not written are not given here. Ebes = 2,2'-ethylenedioxy bis(ethylamine) monosuccinamide; Suc = O=C(CCC(=O)[*:2])[*:1]; Ebes″ = not defined here

Legend:
[1] = biological target: T1, αvβ3 integrin (human, UniProt P06756 31-1048; P05106 27-788); assay: flow cytometry, competition with biotinylated LXW7 on αvβ3-K562 cells (internal reference)
T1 construct: whole, on cells; Same entry used for αvβ3-K562, U-87 MG and A375M cells; also called αvβ3-K562; αvβ3 transfected K562 cells

[2] = biological target: T1, αvβ3 integrin; assay: flow cytometry, competition with FITC-Echistatin on αvβ3-K562 cells; +++ = IC50 <1 µM
[3] = biological target: T1, αvβ3 integrin; assay: flow cytometry, competition with FITC-Echistatin on αvβ3-K562 cells
[4] = biological target: T1, αvβ3 integrin; assay: flow cytometry, saturation binding of LXW7-Bio on αvβ3-K562 cells
[5] = biological target: T1, αvβ3 integrin; assay: flow cytometry, saturation binding of LXW7-Bio on A375M cells
[6] = biological target: T1, αvβ3 integrin; assay: flow cytometry, saturation binding of LXW7-Bio on A375M cells, streptavidin-PE, nonspecific binding with 100 µM LXW7 subtracted
[7] = biological target: T1, αvβ3 integrin; assay: flow cytometry, saturation binding of LXW7-Bio on αvβ3-K562 cells, streptavidin-PE, nonspecific binding with 100 µM LXW7 subtracted
[8] = biological target: T1, αvβ3 integrin; assay: flow cytometry, saturation binding of LXW7-Bio on U-87 MG cells, streptavidin-PE, nonspecific binding with 100 µM LXW7 subtracted
[9] = biological target: T1, αvβ3 integrin; assay: flow cytometry, saturation binding of LXW7-Bio on U-87 MG cells
[10] = biological target: T2, αvβ3 integrin (human), P06756; assay: flow cytometry, competition with FITC-Echistatin on αvβ3-K562 cells; conditions: remark: other sources report otherwise
T2 chain 1: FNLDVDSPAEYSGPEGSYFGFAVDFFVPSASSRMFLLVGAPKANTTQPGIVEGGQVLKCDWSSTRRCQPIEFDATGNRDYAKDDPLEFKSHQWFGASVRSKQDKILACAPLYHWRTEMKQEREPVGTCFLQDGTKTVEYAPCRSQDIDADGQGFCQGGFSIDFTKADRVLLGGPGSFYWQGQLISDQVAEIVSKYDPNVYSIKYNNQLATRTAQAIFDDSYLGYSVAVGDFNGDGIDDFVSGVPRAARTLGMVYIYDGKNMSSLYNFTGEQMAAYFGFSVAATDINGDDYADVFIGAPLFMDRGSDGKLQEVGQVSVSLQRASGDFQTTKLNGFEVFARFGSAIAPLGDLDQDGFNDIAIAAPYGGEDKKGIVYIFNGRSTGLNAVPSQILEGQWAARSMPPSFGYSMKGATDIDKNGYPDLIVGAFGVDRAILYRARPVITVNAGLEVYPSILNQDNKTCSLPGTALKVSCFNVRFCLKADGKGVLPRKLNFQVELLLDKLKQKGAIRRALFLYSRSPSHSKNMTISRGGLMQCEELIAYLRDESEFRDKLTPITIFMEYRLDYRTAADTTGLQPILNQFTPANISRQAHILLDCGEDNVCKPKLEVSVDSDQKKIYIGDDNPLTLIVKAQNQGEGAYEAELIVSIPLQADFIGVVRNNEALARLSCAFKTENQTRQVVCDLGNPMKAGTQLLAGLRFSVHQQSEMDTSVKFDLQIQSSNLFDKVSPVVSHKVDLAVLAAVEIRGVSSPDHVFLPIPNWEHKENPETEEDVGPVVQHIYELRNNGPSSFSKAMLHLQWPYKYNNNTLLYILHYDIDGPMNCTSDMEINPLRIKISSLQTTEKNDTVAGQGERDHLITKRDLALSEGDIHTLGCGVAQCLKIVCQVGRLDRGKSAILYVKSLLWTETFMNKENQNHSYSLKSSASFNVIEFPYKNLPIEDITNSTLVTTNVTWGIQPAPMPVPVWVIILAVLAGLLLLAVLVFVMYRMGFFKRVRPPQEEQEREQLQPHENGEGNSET
T2 chain 2: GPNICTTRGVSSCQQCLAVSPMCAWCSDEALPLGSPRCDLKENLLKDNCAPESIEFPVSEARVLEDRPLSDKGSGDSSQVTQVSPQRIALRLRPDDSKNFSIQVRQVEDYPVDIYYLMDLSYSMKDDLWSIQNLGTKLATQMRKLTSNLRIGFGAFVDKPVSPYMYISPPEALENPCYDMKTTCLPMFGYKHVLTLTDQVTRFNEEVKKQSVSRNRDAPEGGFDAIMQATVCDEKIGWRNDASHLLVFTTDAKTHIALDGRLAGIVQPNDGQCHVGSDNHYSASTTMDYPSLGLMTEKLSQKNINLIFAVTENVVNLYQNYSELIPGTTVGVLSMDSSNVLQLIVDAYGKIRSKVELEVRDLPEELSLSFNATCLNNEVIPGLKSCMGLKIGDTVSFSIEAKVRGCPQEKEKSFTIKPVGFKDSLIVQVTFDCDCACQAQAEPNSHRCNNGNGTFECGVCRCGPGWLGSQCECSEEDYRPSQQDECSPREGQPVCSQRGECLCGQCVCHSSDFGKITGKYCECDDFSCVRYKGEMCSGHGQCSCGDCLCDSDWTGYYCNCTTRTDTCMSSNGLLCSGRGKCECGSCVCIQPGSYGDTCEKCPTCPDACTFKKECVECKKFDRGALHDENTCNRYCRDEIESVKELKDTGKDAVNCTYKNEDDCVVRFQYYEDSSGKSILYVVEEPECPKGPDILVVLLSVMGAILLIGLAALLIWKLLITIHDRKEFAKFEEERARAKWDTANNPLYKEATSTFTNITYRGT

[11] = biological target: T1, αvβ3 integrin; assay: as above; remark: listed apart in the source
[12] = biological target: T1, αvβ3 integrin; assay: as above; remark: listed apart in the source

B1: LXW7 (peptide)
peptide: [dC]GRGD[dD][dV][dC]-NH2
modifications: disulfide 1-8; N-terminus assumed
SMILES: CC(C)[C@H]1NC(=O)[C@@H](CC(=O)O)NC(=O)[C@H](CC(=O)O)NC(=O)CNC(=O)[C@H](CCCNC(=N)N)NC(=O)CNC(=O)[C@H](N)CSSC[C@H](C(N)=O)NC1=O
[1]
  IC50: 0.59 µM
[2]
  IC50: < 1 µM
[3]
  IC50: 0.68 µM

B2: Biotinylated cyclo(cGRGDdvc) (peptide)
peptide: [dC]GRGD[dD][dV][dC]-{Ebes-Ebes-K(biotin)-NH2}
modifications: disulfide 1-8
[4]
  Bmax: 1390 A.U
[5]
  Bmax: 71 A.U
[6]
  Kd: 0.089 µM
[7]
  Kd: 0.076 µM
[8]
  Kd: 0.072 µM
[9]
  Bmax: 86 A.U
[3]
  IC50: 0.62 µM

B3: cyclo (RGDfK)-Bio (peptide)
peptide: cyclo(RGD[dF]K([Suc-Ebes″-Lys(biotin)NH2]))
modifications: reading uncertain
[10]
  IC50: 1.37 µM

B4: LXW3 (peptide)
peptide: [dC]GRGD[dS][dE][dC]-NH2
modifications: disulfide 1-8; N-terminus assumed
SMILES: N=C(N)NCCC[C@@H]1NC(=O)CNC(=O)[C@H](N)CSSC[C@H](C(N)=O)NC(=O)[C@@H](CCC(=O)O)NC(=O)[C@@H](CO)NC(=O)[C@H](CC(=O)O)NC(=O)CNC1=O
[2]
  IC50: < 1 µM

B5: cyclo (RGDfE)-Bio (peptide)
peptide: cyclo(RGD[dF]E([Ebes-Ebes-Lys(biotin) amide]))
notes: also called Biotinylated Cyclo(RGDfE)
[11]
  fold decrease in affinity on biotinylation (against the non-biotinylated form): 2 to 8 fold
[12]
  IC50: 4.7 µM

B6: cyclo(RGDfE) (peptide)
peptide: cyclo(RGD[dF]E)
SMILES: N=C(N)NCCC[C@@H]1NC(=O)[C@H](CCC(=O)O)NC(=O)[C@@H](Cc2ccccc2)NC(=O)[C@H](CC(=O)O)NC(=O)CNC1=O
[12]
  IC50: 0.6 µM
